Laboratory results: article PMC6611850

Columns and labels:
[1] = target: T. thermophilus Csm2 (T. thermophilus); assay: cryo-EM structure; TthCsm bound to a 50-nt complementary target RNA, with noncomplementary ssDNA and 1 mM EDTA; 3.8 Å
[2] = target: T. thermophilus Csm3 (T. thermophilus); assay: as above

Substance	stoichiometry N [1]	stoichiometry N [2]
T. thermophilus Csm2 (natural protein)	4	
T. thermophilus Csm3 (natural protein)		6
